The nanobody polyreactivity screen of Harvey et al. (2022)

Assay: yeast display, Sf9 membrane polyspecificity reagent, FACS + sequencing; frameworks hold sequencing errors
Procedure, shortened: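 Nanobodies from a synthetic yeast display library (Saccharomyces cerevisiae BJ5465), induced 36–48 hours with galactose, were stained 1 hour at 4 °C with 10% biotinylated, detergent-solubilized Sf9 membrane reagent, enriched on streptavidin microbeads, then FACS-sorted. Anti-HA (expression) and streptavidin (reagent binding) fluorescence set low and high (top ~1%) gates. Polyreactivity labels come from the gate of origin. Genes were colony-PCR amplified, MiSeq 2 × 250 sequenced and filtered by CDR length.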

Question: With “QVQLVESGGGLVQAGGSLRLSCAASGFIFRVNAMGWSRQEPGKERELVAAISASGGTTYYADSVKGRFTISRDNAKNTVYLQMNSQKPEDTAVYYCIAPSRTRYDFWGQGTQVTVSW” as the sequence, how does the “polyreactivity (PSR sort gate)” value read?
Answer: low polyreactivity

Question: For “QVQLVESAGGLVQAGGSLRLSCAASGRTITFNTMGLYRQAPGKERELVAGIDRGGSTNYADSVKGRFTISRDNAKNTVYLQMNSLKPEDTAVYYCAADPPGYVYGKRYYWGQGTQVTVSS”, which “polyreactivity (PSR sort gate)” value is on record?
Answer: high polyreactivity

Question: For “QVQLVESGGGLVQAGGSLRLSCAASGRILYGNAMGWYRKAPGKERELVAAITRRGGSTYYADSVKGRFTISRDNAKNTVYLQMNSLKPEDTAVYYCNKVVGYRDTDFDYWGQGTQVTVSS”, which “polyreactivity (PSR sort gate)” value is on record?
Answer: high polyreactivity

Question: Which “polyreactivity (PSR sort gate)” value does the source give for “QVQHVESGGGLVQAGGSLRLSCAASGSTFDRYAMGWNRQAPGKERELVAAISGGGGSTYYADSVKGRFTISRDNAKNTVYLQMNSLKPEDTAVYYCAKLLARGNRYDSWGQGTQLTVSS” here?
Answer: high polyreactivity

Question: For “QVQHVESGGGLVQAGGSLRLSCAASGFIFPYYAMGWYRQAPGKERELVAAINSGTSTYYADSVKGRFTISRDNAKNTVYLQMNSLKPEDTAVYYCAAAYPLWYEYDYWGQGTQVTVSS”, which “polyreactivity (PSR sort gate)” value is on record?
Answer: low polyreactivity

Question: With “QVQLVESGGGLVQAGGSLRLSCAASGFTFVQYAMGWYRPAPGKERELVARISSSGGSTYYADSVKGRFTISRDNAKNTVYLQMTSLKPEDTAVYYCAARRSHYYYVARFDYWGQGTQVTVSS” as the sequence, how does the “polyreactivity (PSR sort gate)” value read?
Answer: high polyreactivity

Question: For “QVQLVESGGGLVQAGGSLRLSCAASGSTFHGYAMGWYRQEPGKERELVAAITSGDSTNYADSVKGRFTISRDNAKNTVYLQMNSLKPEDTAVYYCNAEGSSVLTGYWGYPPYWDTYDYWGQGTQVTVSS”, which “polyreactivity (PSR sort gate)” value is on record?
Answer: low polyreactivity

Question: Which “polyreactivity (PSR sort gate)” value does the source give for “QVQLVESGGGLVQAGGSLRLSCAASGRTFEHYGMGWYRQAPGKEREFVADISRIGGSTYADSVKGRFTISRDNAKNTVYLQKNSLKPEDSAVYYCNKARYQLGSGYNYWGQGTQVTVSS” here?
Answer: low polyreactivity

Question: Which “polyreactivity (PSR sort gate)” value does the source give for “QVQLVESGGGLVQAGGSLRLSCAASGSIFKRNDMGWYRQAPGKDRELVASISSGGSTHYADSVKGRFTISRDNAKNTVSLQMNSLKPEDTAVYYCAATSIRWSVGSFRRDYWGQGTQVTVSS” here?
Answer: low polyreactivity

Question: With “QVQLVESGGGLVQAGGSLRLSCAASGSIFHSNAMGWYRQAPGKERELVAAISASGGSTYYADSVKGRFTISRDNAKNTVYLQMNSLKPEDTAVYYCNAVSRYYRFSPYYYWGQGTQVTVSS” as the sequence, how does the “polyreactivity (PSR sort gate)” value read?
Answer: high polyreactivity

Question: For “QVQLVESGGGLVQAGGSLRLSCDASGITFLNYAMGWYRQAPGKERELVAAIDTRGGRTNYADSVKGRFTISRDNAKNTVYLQMNSLKPEDTAVYYCAADPFYWYRSVRGEYWGQGTQVTVSS”, which “polyreactivity (PSR sort gate)” value is on record?
Answer: low polyreactivity

Question: For “QVQLVESGGGLVQAGCSLRLSCAASGIIFAWYAMGWYRQAPGKERELVAGISQSGGRTYYADSVKGRFTISRDNAKNTVYLQMNSLKPEDTAVYYCAAERPYSRVGYYYWGQGTQVTVSS”, which “polyreactivity (PSR sort gate)” value is on record?
Answer: high polyreactivity

Question: For “QVQLVESGGGLVQAGGSLRLSCAASGSTFYLYAMGWYRQAPGKERELVAAISYSDGSTYYADSVKGRFTISRDNAKNTVYLQMNSMKPEDTAVYYCAAQHYVRSSIPGFIYYYWGQGTQVNVSS”, which “polyreactivity (PSR sort gate)” value is on record?
Answer: high polyreactivity

Question: With “QVQLVESGGGLVQAGGSLRLSCAASGIFIDSNAMGWNRQAPGKERELVAAITSGGSTKYADSVKGRFTISRDTAKNTVYLQMNSLKPVDTAVYYCNAGPAVRSAYSTPYYDYWGLGTQVTVSS” as the sequence, how does the “polyreactivity (PSR sort gate)” value read?
Answer: low polyreactivity

Question: With “QVLLQESGGGLVQAGGSLRLGCAASGTISPAYYMGRSLQAPGKEREFVAAITYGTNTYYADSVKGRFTISRDNAKNTVYLQMNSLKPEDTAVYYCSATAGYNGAHDYWGQATQVTVSS” as the sequence, how does the “polyreactivity (PSR sort gate)” value read?
Answer: low polyreactivity

Question: For “QVQLVESGGGLVQAGGSLRLSCAASGFIFRYYAMGWYRQAPGKERELVAAITSDGSTYYADSVKGRFTISRDNAKNTVYLQMNSLKPEDTAVYYCARSVYRFYLKTRASDYWGQGTQETVSS”, which “polyreactivity (PSR sort gate)” value is on record?
Answer: high polyreactivity

Question: For “QVQLVESGGGLVQAGGILRLSCAATGTTFSYYPMGWYRQAPGKERELVAAITNGGSTYYADSVKGRFTISRDNAKNTVYLQMNSLKPEDTAVYYCAADVSYWPYARYQRYPRYDYWGQGTQVTVSS”, which “polyreactivity (PSR sort gate)” value is on record?
Answer: low polyreactivity

Question: For “QFQLVESGGGLVQAGGSLRLSCAASGSTFRRNTMGWYRQAPGKEREFVAAISRRGGSTYYADSVKGRFTISRDNAKNTVYLQMNRLKPEDTAVYYCAAPGLSRLYNVYYWPYDYWGQGTQVTVSS”, which “polyreactivity (PSR sort gate)” value is on record?
Answer: high polyreactivity

Question: Which “polyreactivity (PSR sort gate)” value does the source give for “QVQLVESGGGLVQAGGSLRLSCAASGRTFAPYAMVWYRQAPGKERELVAAITYSGGSTYYADSVKGRFTISRDNAKNTVYLQMNSLIPADTAVYYCAADSDYDPYDYWGQGTQVTVSS” here?
Answer: low polyreactivity

Question: Which “polyreactivity (PSR sort gate)” value does the source give for “QVQLVESGGGLVQAGGSLRLSCAASGRTFLQYAMGWYRQAPGKERELVAANTTSGGDTYYADSVKGRFTISRDNAKNTVYLQMNSMKPDDTAVYYCNAAFRVYIPHVPYFVDFDYWGQGTQVTLSS” here?
Answer: low polyreactivity

Question: With “QVQLVESGGGLVQAGGSLRLSCAASGSTFPVYAMGWYRQAPGKERELVAAITSGGSTYYADSVKGRFTISRDNAKNTVYLQMNSLKPEDTAVYYCAAEDSSPAYNHWGHGTQVTVSS” as the sequence, how does the “polyreactivity (PSR sort gate)” value read?
Answer: low polyreactivity

Question: For “QVQLVESGGGLVQAGGSLRLSCAASGYTFGSYAMGWYRPAPGKERELVAAITPGGSTYYADSVKGRFTISRDNAKNTVYLQMNSLKPEDTAVYYCNRATRYWKAYYWFKTMDYWGQGTQVTVSS”, which “polyreactivity (PSR sort gate)” value is on record?
Answer: high polyreactivity

Question: For “QVQLVESGGGLVQAGGSLRLSCAASGRIRYAMGWYRQAPGKERELVAGITWSGGRTYYADSVKGRFTISRDNAKNTVYLQMNSLKPEDTAVYYCAAATPYRYNYWGQGTQVTVSA”, which “polyreactivity (PSR sort gate)” value is on record?
Answer: high polyreactivity

Question: Which “polyreactivity (PSR sort gate)” value does the source give for “QVQLVESGGGLVQAGGSLRLSCAASGSIFRHNAMGWYRQAPGKERELVAAITSRGGSTYYADSVKGRFTISRDNAKNTVYLQMNSLKPEDTAVYYFAADYSSLSWGYDYWGQGTQVTVSS” here?
Answer: high polyreactivity

Question: With “QVQLVESGGGLVQAGGSVRLSCAASGSIFGWYAMGWYRQGPGKEREWVATITDRGGRTYYADSVKGRFTISRDNAKNTVYLQMNSLKPEDTAVYYCAADDCPFEAEYDSWGQGTQVTVSS” as the sequence, how does the “polyreactivity (PSR sort gate)” value read?
Answer: low polyreactivity

Question: With “QDQLVDSGGGLVQAGGSLRLLCAPSGRTFGVYAMGRYIQAPGKERELVAAISRDGGSTYYADSVKGRFTISRDNAKNTVYLQMNSLIPEDTAVYYCNTDWRYRYGYWGQGTQVTVSS” as the sequence, how does the “polyreactivity (PSR sort gate)” value read?
Answer: high polyreactivity

Question: For “QVQLVESGGGLVQAGGSLRLSCAASGSIFKLNAMGWYRQAPGKERELVAAISRGGRTYYADSVKGRFTISRDNAKNTVYLQMNSLKPEDTAVYYCAADASSQIWYYPRDDYWGQGTNVTVSS”, which “polyreactivity (PSR sort gate)” value is on record?
Answer: low polyreactivity

Question: Which “polyreactivity (PSR sort gate)” value does the source give for “QVQLVESGGGLVQAGGSLRLICAASGFTFLVNAMGWYRQAPGKERELVAAISSGGSTYYADSVKGRFTISRDNAKNTVYLQMNSLKPEDTAVYYCAAPTDFLFWEFDYWGQGTQVTVSS” here?
Answer: low polyreactivity

Question: With “QVQLVESGGGLVQAGGSLRLSCAASGFIFSYYAMGWYRQAPGKERELVAAISSGGSTYYADSVKGRFTISRDNAKNSVYLQMNSLKPEDTAVYYCAAAIWYIILYFVRRTEHGYWGQGTQVTVSS” as the sequence, how does the “polyreactivity (PSR sort gate)” value read?
Answer: low polyreactivity

Question: For “QVQLVESGGGLVQAGGSLRLSCAASGSIFSYNTMGWYRQAPGKERELVASISSSGGTTYYADSVKGRFTISRDNAKNTVYLQMNSLKPEDTAVYYCAAKLRSYYSGPRYYYWGQGTQVTVSS”, which “polyreactivity (PSR sort gate)” value is on record?
Answer: high polyreactivity

Question: With “QVQLVESGGGLVQAGGSLRLSCAACGSIFRPNAMGWYRQAPGKERELVAAITWIAGGTYYADSVKGRFTISRDNAKNTVYLEMNSLKPEDTAVYYCAARWYFQTAVGRYYHYDYWGQGTQVTVSS” as the sequence, how does the “polyreactivity (PSR sort gate)” value read?
Answer: high polyreactivity

Question: For “QVQLVESGGGLVQAGGSLRLSCAASGGTFTFYAMGWYRQATGKEMELVATINWSGGSTYYADSVKGRFTISRDNAKNTVYLQMNSLKPEDTAVYYCNAAWPYKSVEYWGQGTQVTVSS”, which “polyreactivity (PSR sort gate)” value is on record?
Answer: low polyreactivity

Question: With “QVQLVESGGGLVQAGGSLRLSCAASGRIFTYYAMGWYSQAPGKERELVAAISRSGGRTYYADSVKGRFTISRDNAKNTVYLQMNSLTPEDTAVYYCAADRLSLRAYDYWGQGTQVTVSS” as the sequence, how does the “polyreactivity (PSR sort gate)” value read?
Answer: high polyreactivity

Question: Which “polyreactivity (PSR sort gate)” value does the source give for “QVQLVDSGGGLVQAGGSLRLRCAASGSTYHYAMAGYRQAPGKERELVASITWRGDTTYYADSVKARFTISRDNAMNTVYFHMNSLKPEDSAVYYCAAYVRRCFAWGQGTQVTVSS” here?
Answer: high polyreactivity

Question: With “QVQLVESGGGLVQAGGSLRLSCAASGSIFLAYAMGWYRQAPGKEREFVAAISFSDGSTYYADSVKGRFTISRDNAKNTVYFQMNSLKPEDTAVYYCNKGASPDDYDYWGQGTQVTVSS” as the sequence, how does the “polyreactivity (PSR sort gate)” value read?
Answer: low polyreactivity

Question: Which “polyreactivity (PSR sort gate)” value does the source give for “QVQLVESGGGLVQAGGSLRLSCAASGRTLWLYTMGWYRQATGKERELVARSRSGGSTYYADSVKGRFTISRDNAKNTVYLQMNSLKPEDTAVYYCAAFPYWIHYEHYYWGQGTQVTVSS” here?
Answer: high polyreactivity

Question: For “QVQLVESGGGLVQAGGSLRLSCAASGRTFSRNAMGWYRQAPGKERELVAAISWSGARTYYADSVKGRFTISRDNAKNTVYLQMNSLKPEDTAVYYCAARVPSWKYDYWGQGTQVTVSS”, which “polyreactivity (PSR sort gate)” value is on record?
Answer: high polyreactivity

Question: For “QVQHVESRGGLVQAGGSLRLSCAASGFILYLNAMGWYRQAPGKERELVAAITSDGGSTYYADSVKGRFTISRDNAKNTVYLQMNSLKPEDTAVYYCAADNYPDEYDYWGQGTQVTVSS”, which “polyreactivity (PSR sort gate)” value is on record?
Answer: low polyreactivity

Question: For “QVHLVESGGGLVQAGGSLRLICAAYRRTLGGNAMGWYRQAPGKERELVAPITHSASTYADSVKGRFTISRDNAKNTVYLQMNSLKPEDTAVYYCNAPDPSDQHGDYWGQGTQVTVSS”, which “polyreactivity (PSR sort gate)” value is on record?
Answer: low polyreactivity

Question: With “QVQLVESGGGLVQAGGSLRLSCAASGSTFSDNAMGWYRQAPGKERELVAAISVTGGRTYYADSVKGRFTISRDNAKNTVYLQMNSLKPEDTAVYYCAKVTILDPYSYDYWGQGTQVTVSS” as the sequence, how does the “polyreactivity (PSR sort gate)” value read?
Answer: low polyreactivity

Question: With “QVQLVESGVGLVQAGGSLRLSCAASGRIFYRNAMGWYRQAPGKERELVAAISYSGGRTYYADSVKGRFTISRDNAKNTVYLQMNSLKPEDTAVYYCAARYAWGYVDPGDYWGQGTQVTVSS” as the sequence, how does the “polyreactivity (PSR sort gate)” value read?
Answer: high polyreactivity

Question: With “QVHLVESGGGLVQPGGTLRLTCAASGSTFGSNARGWYRLAPGKESELVAAITRRGGSTYYADSVKGRFTISRDNAKNTVDLQMNSLKPEDTAVYYCDNVYYYLYTRYDYWGQGTEVTVSS” as the sequence, how does the “polyreactivity (PSR sort gate)” value read?
Answer: low polyreactivity

Question: With “QVQLVESGGGLVQAGGSLRLICAASGFIFFSNAMGWYRQAPGKERELVAVIDRATSTYYADSVKGRFTISRDNAKNTFYLQLNSLKPEDTAVYYCNADGEEVYDFNYFLSFKGDYWGQGTQVTVSS” as the sequence, how does the “polyreactivity (PSR sort gate)” value read?
Answer: low polyreactivity
